Results: the supplement of paper PMC12764529
± gives the half width of the 95% confidence interval.

Experiment: folding stability dG unfold from trypsin proteolysis; higher = more stable
Outline: (§1)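 Digests were run with trypsin and chymotrypsin at 11 concentrations in threefold dilutions, plus a no-protease condition, on designed mini-proteins in a PA-tagged cDNA display construct. The mini-proteins were under 80 residues, had no cysteine, and were kept only when AlphaFold2 dimer inter-PAE was above 15. After sequencing, Bayesian fitting of the counts gave K50, from which unfolding free energy was derived against a sequence-predicted unfolded-state K50 and a shared folded-state K50, per protease or combined.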

In order of falling “folding stability dG unfold” value:
1. SAGKMLVVRIEVEVEVEVTVEKDGKKETFKEKKKLTLTLVFESEEEAEAAKKELEKLFPDLKIEVVPLPSAG [r5_453_TrROS_Hall]  4.43 ± 0.47 kcal/mol
2. SAGGSKVRIEVEELPDGTVKVTAEVEVDGVLYKIEAEFRINEDGEIVEMKVKIEARPLPPPPPPEESAGGSA [r2_474_TrROS_Hall]  3.5 ± 0.27 kcal/mol
3. SAGGSAKPKVEVEIVDVEFEEVEVNGKKYLVMKMKVKLKETGEYIEVTMVFDLKTNKMYIEVKKLPSAGGSA [r15_528_TrROS_Hall]  3.49 ± 0.29 kcal/mol
4. SAGGSAGGSAGEKTFVIDEVKITSVERLPDGSLRVTIEVRLPNGETLTLTLTLPPGAVLESAGGSAGGSAGG [r11_429_TrROS_Hall]  2.84 ± 0.11 kcal/mol
5. SAGGSAAKPGETVRVVVTVRVPPGATAEELKAALEALLGPDAEVTVEVFETPDTVVVVVEVRLPPASAGGSA [r15_749_TrROS_Hall]  2.65 ± 0.26 kcal/mol
6. SAGDKKTIELWFMFKTPEEARHEADSIARRLAEEGLTIKVELKDIEPMPDPDGEKYYMFEFKVTIQLPNSAG [r5_158_TrROS]  2.55 ± 0.062 kcal/mol
7. SAGGSAGGSKLRLVLKFKTPEEAEEAARKLAEELKKKEGVKEVKVSVVKVNGEYYVVVEVEKESAGGSAGGS [r12_7_TrROS_Hall]  2.53 ± 0.27 kcal/mol
8. SAGGSAGGSKTIVLPKNMSIEQAREEILAKARELLPPGEKLKVTIEVVETPEGTYLKITIEKESAGGSAGGS [r12_1051_TrROS_Hall]  2.49 ± 0.06 kcal/mol
9. SAGGSAGGSAGGKTVWIPWDDLEELKDLPPGKKRTIHLWNPKNGRWYRITVTDNNIEIERSAGGSAGGSAGG [r7_765_TrROS]  2.36 ± 0.061 kcal/mol
10. SWNLRLEIEEVEIEPSDNWIIIMVRVEIEGRNPDDPNKPRPVFEVWVMIPIPLPPPKPKPDPDDPAAAKDSA [r9_357_TrROS]  2.29 ± 0.25 kcal/mol
11. SAGGSAGGSAMTPETIKEKYPNVDYSPSPLGGKTVYTFTFPSGSTVTVTFNPGSATITTIAGSAGGSAGGSA [r18_13_JUSTAS]  2.26 ± 0.13 kcal/mol
12. SAGGSPGQPYYIMIKLEWENPEDGEEHTFDIMFPVKSAEDAKDYILKELLPPGHKLKIDDISIMPMSAGGSA [r2_320_TrROS]  1.48 ± 0.022 kcal/mol
13. SMITSTTTTDPNSNTTTTTYTYPDTTYTVTRTLNPDNTVTVTVTATTPPGPTTPLSTVNLSPTDTLTLPVSA [r9_1172_JUSTAS]  1.34 ± 0.031 kcal/mol
14. SAGGSAGGSGMVEEEEYEDPATGVRTRTTTTYLPNGTVVRTPVVYTPDRPVEEVPTVTPIPSGSAGGSAGGS [r20_88_JUSTAS]  1.04 ± 0.075 kcal/mol
15. SAGGSGMVITIPVELPTPRTLTFTFYPETGTATVEVSPGVPAAEVRATVEEVFAAHGLKLNPITLLSAGGSA [r2_497_JUSTAS]  0.995 ± 0.02 kcal/mol
16. SAGGSAGMDPSKVSLSISTKTYTDTATGRKVEELYFEGSGKKVTVTTLPDGTKIVTYENGVVIEVESAGGSA [r15_617_JUSTAS]  0.758 ± 0.024 kcal/mol
17. SAGMPLRTVKVLVTINDKTEEKTLSEEELKALIESGELELLGKEPEENIVYVYKKVPPPVGSKTKKSLLSAG [r5_868_JUSTAS]  0.71 ± 0.29 kcal/mol
18. SAGGSATLKEIAKEIEKTVKPKYAKKLAKTIEEAVKKGYEIKKIIIEKPKDDSFKATIYLKKPNDPSAGGSA [r15_613_TrMRF]  0.676 ± 0.14 kcal/mol
19. SASFTLTPVTVTLSPDPETGAILAPVLATAGDHPVFGLAYVDPLDPSRAYYRIYYPPSDLVEYAVVPLPSAG [r14_178_TrMRF]  0.469 ± 0.066 kcal/mol
20. SAGGSAGGSKMVLKVTLENGKTIEIEAGETIEEIKAKIEEEFGKPVKIKVEKVSAEELGLKPESAGGSAGGS [r12_379_TrROS_Hall]  0.304 ± 0.13 kcal/mol
21. SAGPPKKREFEIMIQIPLPPGQSAEELKDLLEIPIRLPDGKTIEIRPRAIEVDPGPGQVTVHYKIEVTDSAG [r5_939_TrROS]  0.179 ± 0.079 kcal/mol

Experiment: folding stability dG unfold (combined trypsin and chymotrypsin); higher = more stable
Outline: as §1

In order of rising “folding stability dG unfold” value:
1. SAGGSAGGSMHEDEQLPYEAAEKYTILKLKEENEKLNLPPIPIKKIEIEKDPETGLVRVKVYGSAGGSAGGS [r12_583_TrMRF]  -0.552 ± 0.39 kcal/mol
2. SAGGSAGGSILVIKIKFPGNGRPIHYPIKDPEDFDRVLKKAKERFPGYDKDNIKEAEIYPLPPSAGGSAGGS [r12_852_TrROS]  -0.0696 ± 0.17 kcal/mol
3. SAGGSAFRVQTWDDGKPRKIPIGESLDDLKDQIDDNPNYPIYIEFPNGKPFHMPWSDIKNMIDQLKSAGGSA [r15_36_TrROS]  -0.0315 ± 0.28 kcal/mol
4. SAGGSAGMDPSKVSLSISTKTYTDTATGRKVEELYFEGSGKKVTVTTLPDGTKIVTYENGVVIEVESAGGSA [r15_617_JUSTAS]  0.314 ± 0.054 kcal/mol
5. SAGGSAGGMTVTTTSSFDPTSPTANTLTTTYVSPEELKRPEIQALPDLPGKTLEFPTTTPVPPPSAGGSAGG [r6_768_JUSTAS]  0.431 ± 0.085 kcal/mol
6. SAGPPKKREFEIMIQIPLPPGQSAEELKDLLEIPIRLPDGKTIEIRPRAIEVDPGPGQVTVHYKIEVTDSAG [r5_939_TrROS]  0.463 ± 0.099 kcal/mol
7. SAGGSATLKEIAKEIEKTVKPKYAKKLAKTIEEAVKKGYEIKKIIIEKPKDDSFKATIYLKKPNDPSAGGSA [r15_613_TrMRF]  0.66 ± 0.27 kcal/mol
8. SAGGSAGGSSPSSVSTYDIEFPDGTKIKITVTLGPGTPVVEITTLTESPPVKRVANTEEVKFESAGGSAGGS [r20_100_JUSTAS]  0.696 ± 0.19 kcal/mol
9. SASFTLTPVTVTLSPDPETGAILAPVLATAGDHPVFGLAYVDPLDPSRAYYRIYYPPSDLVEYAVVPLPSAG [r14_178_TrMRF]  0.722 ± 0.097 kcal/mol
10. SSSGPKTELITLKYEEPVRSPEEAEARARALAEEIAERTGAPIEVDVEIEYDPETGKAYVTVPVRVLLPDSA [r9_741_JUSTAS]  0.727 ± 0.1 kcal/mol
11. SAGGSAGGSAGASPSVPFTVKVTIKSPNGLSTKTISLSSLEDLEALPLPNVVEIEITPLSSAGGSAGGSAGG [r17_290_JUSTAS]  0.907 ± 0.14 kcal/mol
12. SAGGSAGGSGMVEEEEYEDPATGVRTRTTTTYLPNGTVVRTPVVYTPDRPVEEVPTVTPIPSGSAGGSAGGS [r20_88_JUSTAS]  0.958 ± 0.21 kcal/mol
13. SAGGMKTAVLTLEVPGLPKRLVLIAGESEEEYKKLAAEAEKPGYEFLGYTTLEELVERTGLPASLLLSAGGS [r16_438_JUSTAS]  0.969 ± 0.19 kcal/mol
14. SAGGMVEVKPFEIKPPGSSITVTLTDPQGNVIGSTTVSVPTGRLELTITVEPDKTVKVTLTELPPSEVSAGG [r13_935_JUSTAS]  1.01 ± 0.13 kcal/mol
15. SAGGSAMSLSDIKDVDVYRNPNGWYTAKLKIKDPNNGKDKEVNIHVPPGQTPEKAKNIAREILKELSAGGSA [r15_181_TrROS]  1.14 ± 0.086 kcal/mol
16. SAGGSAGGSKMVLKVTLENGKTIEIEAGETIEEIKAKIEEEFGKPVKIKVEKVSAEELGLKPESAGGSAGGS [r12_379_TrROS_Hall]  1.33 ± 0.17 kcal/mol
17. SMITSTTTTDPNSNTTTTTYTYPDTTYTVTRTLNPDNTVTVTVTATTPPGPTTPLSTVNLSPTDTLTLPVSA [r9_1172_JUSTAS]  1.36 ± 0.054 kcal/mol
18. SAGGSGMVITIPVELPTPRTLTFTFYPETGTATVEVSPGVPAAEVRATVEEVFAAHGLKLNPITLLSAGGSA [r2_497_JUSTAS]  1.39 ± 0.066 kcal/mol
19. SAGGSPGQPYYIMIKLEWENPEDGEEHTFDIMFPVKSAEDAKDYILKELLPPGHKLKIDDISIMPMSAGGSA [r2_320_TrROS]  1.4 ± 0.15 kcal/mol
20. SAGGSAGGSAKKPPVYKIKIKVVNKKTKKEIEIEVEVKAGKTPEEIAKELAKKFGIEKVEIESAGGSAGGSA [r18_58_TrROS_Hall]  1.45 ± 0.27 kcal/mol
21. SAGGLDAVLAELAKKPPGVTVELPVELPDGSRVVLTATWPAETSSPVITVKYYDPNRPEAVEEETFTVTSAG [r5_35_JUSTAS]  1.46 ± 0.12 kcal/mol
22. SAGMPLRTVKVLVTINDKTEEKTLSEEELKALIESGELELLGKEPEENIVYVYKKVPPPVGSKTKKSLLSAG [r5_868_JUSTAS]  1.64 ± 0.27 kcal/mol
23. SAGGSDLKVQVNKDGNTIRIQLPDGKPIFEIPFYRYDPDDGKPLEPWTIRMRLDPDGNIKIEEITPSAGGSA [r2_362_TrROS]  1.68 ± 0.15 kcal/mol
24. SAGGSAGGSAGGGLSSAPPPVVALSSSVSLVPSPSGGILTVTTTTDAGSGTTTTTTTALSAGGSAGGSAGGS [r10_1137_JUSTAS]  1.71 ± 0.042 kcal/mol
25. SAGGSLEDFELAGTFPATSEGETLLVTVWKSKEPGKYVVSAYYPSTGIPEVKVVNPEDIEEFFKNLYSAGGS [r8_469_TrMRF]  1.78 ± 0.054 kcal/mol
26. SAGGSAGGSISIDPAKVLEVKTRANGQLLITTEDEVYVVDPSTGTVTKITKEEAEKLPEDVPLLSAGGSAGG [r6_890_JUSTAS]  1.96 ± 0.15 kcal/mol
27. SAGGSAGGSIEIFKSPEGWYVRIWFPGKPQVIPIDDAEDLKNFEIPIPNGRPIKVEILPPKDLSAGGSAGGS [r12_730_TrROS]  2.13 ± 0.059 kcal/mol
28. SAGMLEISSDVLKALGIPVGATAEEVKERIQRRLEELGFEVEIPSVVIEELDPETGRVGVRIDLDLRPPSAG [r5_23_TrMRF]  2.5 ± 0.23 kcal/mol
29. SAGGSAAKPGETVRVVVTVRVPPGATAEELKAALEALLGPDAEVTVEVFETPDTVVVVVEVRLPPASAGGSA [r15_749_TrROS_Hall]  2.74 ± 0.19 kcal/mol
30. SWNLRLEIEEVEIEPSDNWIIIMVRVEIEGRNPDDPNKPRPVFEVWVMIPIPLPPPKPKPDPDDPAAAKDSA [r9_357_TrROS]  2.8 ± 0.43 kcal/mol
31. SAGGSAGGSAGGKTVWIPWDDLEELKDLPPGKKRTIHLWNPKNGRWYRITVTDNNIEIERSAGGSAGGSAGG [r7_765_TrROS]  2.86 ± 0.078 kcal/mol
32. SAGGSAGGSAMTPETIKEKYPNVDYSPSPLGGKTVYTFTFPSGSTVTVTFNPGSATITTIAGSAGGSAGGSA [r18_13_JUSTAS]  2.96 ± 0.11 kcal/mol
33. SAGGSAGGSAGEKTFVIDEVKITSVERLPDGSLRVTIEVRLPNGETLTLTLTLPPGAVLESAGGSAGGSAGG [r11_429_TrROS_Hall]  3.05 ± 0.07 kcal/mol
34. SAGDKKTIELWFMFKTPEEARHEADSIARRLAEEGLTIKVELKDIEPMPDPDGEKYYMFEFKVTIQLPNSAG [r5_158_TrROS]  3.06 ± 0.14 kcal/mol
35. SAGGSAGGSKTIVLPKNMSIEQAREEILAKARELLPPGEKLKVTIEVVETPEGTYLKITIEKESAGGSAGGS [r12_1051_TrROS_Hall]  3.22 ± 0.058 kcal/mol
36. SAGGKPKPGQEVEMKMIMLMVTKPGEITIMRMKMEMRVNPDGNVQMDMKMEMVRVPLSKDQAKELLNASAGG [r13_544_TrROS]  3.69 ± 0.36 kcal/mol
37. SAGGSAGGSKLRLVLKFKTPEEAEEAARKLAEELKKKEGVKEVKVSVVKVNGEYYVVVEVEKESAGGSAGGS [r12_7_TrROS_Hall]  3.72 ± 0.25 kcal/mol
38. SAGIYIPMDMTIDELVDILQKFGIRSVTTERMPEPGMYKATLKFPDLTIEIWYHPNWMHIEIVPPGEPISAG [r5_899_TrROS]  3.85 ± 0.23 kcal/mol
39. SAGGSKVRIEVEELPDGTVKVTAEVEVDGVLYKIEAEFRINEDGEIVEMKVKIEARPLPPPPPPEESAGGSA [r2_474_TrROS_Hall]  3.92 ± 0.21 kcal/mol
40. SAGGSAGGSKKTVLVRITVTLPNGEKREIELEVEVDSVEDLKELLKKLPLPPGMKVTIEVVPASAGGSAGGS [r20_162_TrROS_Hall]  4.16 ± 0.31 kcal/mol
41. SAGKMLVVRIEVEVEVEVTVEKDGKKETFKEKKKLTLTLVFESEEEAEAAKKELEKLFPDLKIEVVPLPSAG [r5_453_TrROS_Hall]  4.54 ± 0.2 kcal/mol
42. SAGGSAKPKVEVEIVDVEFEEVEVNGKKYLVMKMKVKLKETGEYIEVTMVFDLKTNKMYIEVKKLPSAGGSA [r15_528_TrROS_Hall]  5.17 ± 0.43 kcal/mol
